Source: PMC7924340 (Toxins, 2021)

Tests used:
Assay in all cases: radioligand binding
[1] = target: Acetylcholine binding protein from Aplysia californica (Aplysia californica)
[2] = target: Acetylcholine binding protein from Lymnaea stagnalis (Lymnaea stagnalis) (UniProt P58154)
[3] = target: Muscle-type nAChR from the electric organs of Torpedo californica (Torpedo californica (endogenous in electric organ))
human α7 nAChR (human) = human α7 nAChR (human) (UniProt P36544)
[4] = target: T1, Acetylcholine binding protein from Lymnaea stagnalis (Lymnaea stagnalis, UniProt P58154 20-229); details: both partners purified
T1 construct: also called AChBP L. stagnalis; L. stagnalis AChBP

human α7 nAChR = target: T2, human α7 nAChR (human, UniProt P36544 23-502); details: one partner purified
T2 construct: also called hα7 nAChR
T2 sequence (P36544 23-502): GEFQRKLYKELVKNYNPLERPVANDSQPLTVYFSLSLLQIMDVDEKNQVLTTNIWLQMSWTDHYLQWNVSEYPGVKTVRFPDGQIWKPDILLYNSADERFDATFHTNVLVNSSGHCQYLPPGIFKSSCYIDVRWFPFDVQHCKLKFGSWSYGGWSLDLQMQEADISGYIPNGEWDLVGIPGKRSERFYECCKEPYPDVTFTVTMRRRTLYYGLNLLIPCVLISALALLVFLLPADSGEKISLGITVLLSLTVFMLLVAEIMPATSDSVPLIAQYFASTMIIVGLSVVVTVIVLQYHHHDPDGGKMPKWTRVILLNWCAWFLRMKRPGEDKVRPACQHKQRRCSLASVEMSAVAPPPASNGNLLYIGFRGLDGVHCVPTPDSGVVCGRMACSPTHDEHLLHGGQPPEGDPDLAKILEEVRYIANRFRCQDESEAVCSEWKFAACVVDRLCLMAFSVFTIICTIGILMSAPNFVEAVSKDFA

Tx-NM3-1 (from UniProt P01388 1-71) (natural protein)
IC50 [1]: 3200 nM | IC50 [2]: 203 nM | IC50 [3]: 1.61 nM | IC50 (human α7 nAChR (human)): 4.84 nM

α-bungarotoxin from krait Bungarus multicinctus venom (from UniProt P60615 22-95) (natural protein)
IC50 [1]: 155 nM

B1: α-bungarotoxin from krait Bungarus multicinctus venom (natural protein)
chain: IVCHTTATSPISAVTCPPGENLCYRKMWCDAFCSSRGKVVELGCAATCPSKKPYEEVTCCSTDKCNPHPKQRPG
IC50 [4]: 17.2 ± 0.7 nM

B2: Tx-NM4 (natural protein)
chain: IRCFITPDVTSQICADGHVCYTKTWCDNFCASRGKRVDLGCAATCPTVKPGVNIKCCSTDNCNPFPTRNRP
IC50 [1]: 2350 nM | IC50 [3]: 2.17 nM | IC50 [4]: 1160 ± 40 nM | IC50 (human α7 nAChR): 26.9 nM

B3: Long type neurotoxin I from cobra N. oxiana (natural protein)
chain: ITCYKTPIPITSETCAPGQNLCYTKTWCDAWCGSRGKVIELGCAATCPTVESYQDIKCCSTDDCNPHPKQKRP
IC50 [1]: 1200 nM | IC50 [4]: 73.4 ± 1.3 nM
